For 5 substances, Kd results are on record in article PMC4538832, “Structures of the T. brucei kRNA editing factor MRB1590 reveal unique RNA-binding pore motif contained within an ABC-ATPase fold” (Nucleic Acids Research, 2015).

This data set concerns T1, MRB1590(10-668) (Trypanosoma brucei), UPI00067E648B.
T1 sequence: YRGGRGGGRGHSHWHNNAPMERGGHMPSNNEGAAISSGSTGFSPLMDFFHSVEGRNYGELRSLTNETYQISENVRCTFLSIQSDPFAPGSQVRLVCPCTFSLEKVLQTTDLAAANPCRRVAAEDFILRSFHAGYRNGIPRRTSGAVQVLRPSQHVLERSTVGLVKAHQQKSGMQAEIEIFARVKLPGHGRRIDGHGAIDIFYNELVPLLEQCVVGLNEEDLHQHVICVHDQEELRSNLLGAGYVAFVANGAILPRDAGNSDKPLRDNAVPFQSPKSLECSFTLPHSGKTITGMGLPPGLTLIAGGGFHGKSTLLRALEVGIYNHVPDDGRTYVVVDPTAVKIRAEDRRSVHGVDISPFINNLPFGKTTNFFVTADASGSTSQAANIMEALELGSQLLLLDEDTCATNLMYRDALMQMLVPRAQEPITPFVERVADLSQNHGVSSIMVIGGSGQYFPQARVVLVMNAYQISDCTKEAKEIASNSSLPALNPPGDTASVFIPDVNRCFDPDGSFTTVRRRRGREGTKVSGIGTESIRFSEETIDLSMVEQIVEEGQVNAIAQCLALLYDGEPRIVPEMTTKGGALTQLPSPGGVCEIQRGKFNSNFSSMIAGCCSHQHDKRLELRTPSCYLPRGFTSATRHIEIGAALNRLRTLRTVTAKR
Briefly: fluorescence polarization. The note with it: FP: 20 mM Tris-HCl pH 7.5, 150 mM NaCl, 5% glycerol, 1 mM MgCl2, 2 mM ADP or AMP-PNP, 1 nM 3'-fluoresceinated RNA (heated to 99 C, slow cooled), 25 C.
GC-rich RNA 15 mer came in with a Kd of 27.9 nM.
As to GC-rich RNA 14 mer, the Kd is 236 nM.
The substance GC-rich RNA 16 mer displayed a Kd of 8.2 nM.
In turn, 40 mer GC-rich A6 had a Kd of 1.3 nM.
As to GC-rich RNA 18 mer, the Kd was found to be 5.7 nM.
